Assay [1] concerns the target Mcm3 (HA-Mcm3, subunit of the purified MCM2–7 hexamer) (S. cerevisiae, UniProt P24279 1-971). The assay can be described thus: EM, three-dimensional reconstruction.
Assay [2] concerns the target T1, Mcm4 (subunit of the purified MCM2–7 hexamer) (S. cerevisiae, UniProt P30665 1-933).
T1 sequence: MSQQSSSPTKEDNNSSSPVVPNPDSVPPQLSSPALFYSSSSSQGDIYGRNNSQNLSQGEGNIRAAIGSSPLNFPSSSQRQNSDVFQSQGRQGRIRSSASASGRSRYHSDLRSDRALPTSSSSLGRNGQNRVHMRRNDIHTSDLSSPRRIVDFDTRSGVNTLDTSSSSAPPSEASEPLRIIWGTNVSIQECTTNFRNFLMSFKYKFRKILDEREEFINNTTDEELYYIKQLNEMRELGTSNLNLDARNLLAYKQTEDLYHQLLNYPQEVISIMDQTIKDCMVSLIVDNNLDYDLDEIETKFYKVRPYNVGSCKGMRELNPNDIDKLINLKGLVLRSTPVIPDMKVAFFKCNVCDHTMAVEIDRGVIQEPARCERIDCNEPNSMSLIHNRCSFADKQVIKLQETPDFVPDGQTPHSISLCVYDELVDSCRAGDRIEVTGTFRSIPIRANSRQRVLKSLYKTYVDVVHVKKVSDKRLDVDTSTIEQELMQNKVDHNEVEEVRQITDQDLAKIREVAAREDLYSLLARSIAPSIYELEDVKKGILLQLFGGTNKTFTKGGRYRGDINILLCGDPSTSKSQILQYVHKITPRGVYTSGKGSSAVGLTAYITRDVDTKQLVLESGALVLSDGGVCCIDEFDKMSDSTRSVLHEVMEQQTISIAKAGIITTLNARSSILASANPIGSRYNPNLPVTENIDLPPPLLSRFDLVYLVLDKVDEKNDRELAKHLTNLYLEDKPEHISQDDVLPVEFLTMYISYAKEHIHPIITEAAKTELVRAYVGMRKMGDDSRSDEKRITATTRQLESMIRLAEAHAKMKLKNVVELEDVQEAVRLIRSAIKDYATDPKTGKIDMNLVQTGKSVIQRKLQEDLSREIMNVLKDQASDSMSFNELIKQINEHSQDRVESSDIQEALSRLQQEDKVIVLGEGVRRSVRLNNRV
Kind of assay: EM, three-dimensional reconstruction.

Results on one molecule are retold here after publication PMC4117941 (Genes & Development, 2014).

Sequence of Mcm3 (HA-Mcm3, subunit of the purified MCM2–7 hexamer) (P24279 whole entry): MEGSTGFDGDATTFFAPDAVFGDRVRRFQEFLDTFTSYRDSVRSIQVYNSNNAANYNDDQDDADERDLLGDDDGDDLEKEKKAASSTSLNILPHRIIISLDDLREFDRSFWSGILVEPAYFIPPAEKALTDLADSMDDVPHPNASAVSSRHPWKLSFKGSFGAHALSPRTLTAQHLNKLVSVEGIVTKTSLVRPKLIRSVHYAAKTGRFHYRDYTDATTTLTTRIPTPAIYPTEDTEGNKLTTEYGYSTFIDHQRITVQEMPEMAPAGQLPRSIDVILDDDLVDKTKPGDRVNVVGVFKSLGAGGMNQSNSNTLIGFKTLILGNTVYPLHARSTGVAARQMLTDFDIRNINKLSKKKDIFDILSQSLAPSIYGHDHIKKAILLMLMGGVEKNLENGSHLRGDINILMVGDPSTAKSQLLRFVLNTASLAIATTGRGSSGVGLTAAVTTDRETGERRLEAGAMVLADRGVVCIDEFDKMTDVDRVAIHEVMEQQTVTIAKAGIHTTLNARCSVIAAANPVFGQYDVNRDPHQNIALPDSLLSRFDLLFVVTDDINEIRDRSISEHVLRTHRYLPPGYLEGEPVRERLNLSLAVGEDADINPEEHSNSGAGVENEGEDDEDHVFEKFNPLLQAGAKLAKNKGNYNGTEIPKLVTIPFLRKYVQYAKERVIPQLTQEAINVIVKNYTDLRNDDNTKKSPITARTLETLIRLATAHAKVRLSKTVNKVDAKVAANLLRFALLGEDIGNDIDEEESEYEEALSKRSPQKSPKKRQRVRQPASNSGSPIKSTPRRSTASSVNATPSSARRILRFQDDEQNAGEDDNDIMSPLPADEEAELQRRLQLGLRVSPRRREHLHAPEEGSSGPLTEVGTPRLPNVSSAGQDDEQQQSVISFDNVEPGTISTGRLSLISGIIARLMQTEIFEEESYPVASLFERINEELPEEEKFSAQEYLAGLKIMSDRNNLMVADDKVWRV

B1: Mcm7 (subunit of the purified MCM2–7 hexamer) (natural protein)
chain: MSAALPSIQLPVDYNNLFNEITDFLVTFKQDTLSSDATRNENEDENLDAENIEQHLLEKGPKYMAMLQKVANRELNSVIIDLDDILQYQNEKFLQGTQADDLVSAIQQNANHFTELFCRAIDNNMPLPTKEIDYKDDVLDVILNQRRLRNERMLSDRTNEIRSENLMDTTMDPPSSMNDALREVVEDETELFPPNLTRRYFLYFKPLSQNCARRYRKKAISSKPLSVRQIKGDFLGQLITVRGIITRVSDVKPAVEVIAYTCDQCGYEVFQEVNSRTFTPLSECTSEECSQNQTKGQLFMSTRASKFSAFQECKIQELSQQVPVGHIPRSLNIHVNGTLVRSLSPGDIVDVTGIFLPAPYTGFKALKAGLLTETYLEAQFVRQHKKKFASFSLTSDVEERVMELITSGDVYNRLAKSIAPEIYGNLDVKKALLLLLVGGVDKRVGDGMKIRGDINVCLMGDPGVAKSQLLKAICKISPRGVYTTGKGSSGVGLTAAVMKDPVTDEMILEGGALVLADNGICCIDEFDKMDESDRTAIHEVMEQQTISISKAGINTTLNARTSILAAANPLYGRYNPRLSPLDNINLPAALLSRFDILFLMLDIPSRDDDEKLAEHVTYVHMHNKQPDLDFTPVEPSKMREYIAYAKTKRPVMSEAVNDYVVQAYIRLRQDSKREMDSKFSFGQATPRTLLGIIRLSQALAKLRLADMVDIDDVEEALRLVRVSKESLYQETNKSKEDESPTTKIFTIIKKMLQETGKNTLSYENIVKTVRLRGFTMLQLSNCIQEYSYLNVWHLINEGNTLKFVDDGTMDTDQEDSLVSTPKLAPQTTASANVSAQDSDIDLQDA
Take B1: the binding result in assay [1] and in assay [2] was “binds” each time.
